Usually Kd stands for the concentration at which binding is half-saturated.

14 molecules from publication doi:10.1101/2021.12.25.474155 can be followed below.

In data set [1] the target is T1, NCAP (SARS-CoV-2, UniProt P0DTC9). The data set can be described thus: EMSA. In general terms: A gel shift assay detects complexes by their altered migration in electrophoresis.
Data set [2] deals with T1, NCAP. The data set can be described thus: competition.
In data set [3] the target is T2, DD-C (SARS-CoV-2, UniProt P0DTC9). The data set can be described thus: EMSA.
Data set [4] has as its target T3, LCD (SARS-CoV-2, UniProt P0DTC9). The data set can be described thus: EMSA.
For data set [5], the target named is T1, NCAP. The data set can be described thus: EMSA. The source holds these as a separate data set.
Data set [6] deals with T4, N-RBD (SARS-CoV-2, UniProt P0DTC9). The data set can be described thus: EMSA.
In data set [7] the target is T1, NCAP. The data set can be described thus: competition. This is another data set of the same source.
Data set [8] addresses T1, NCAP. The data set can be described thus: EMSA. The source holds these as a separate data set.
For data set [9], the target named is T1, NCAP. The data set can be described thus: EMSA. This is another data set of the same source.
The target in data set [10] is T2, DD-C. The data set can be described thus: EMSA. The source holds these as a separate data set.
Data set [11] concerns the target T3, LCD. The data set can be described thus: EMSA. The source holds these as a separate data set.
Data set [12] addresses T4, N-RBD. The data set can be described thus: EMSA. The source holds these as a separate data set.

Where two headings read alike, the source gives them in different places.

B1: F294 (structured_RNA)
RNA: GGAUUAAAGGUUUAUACCUUCCCAGGUAACAAACCAACCAACUUUCGAUCUCUUGUAGAUCUGUUCUCUAAACGAACUUUAAAAUCUGUGUGGCUGUCACUCGGCUGCAUGCUUAGUGCACUCACGCAGUAUAAUUAAUAACUAAUUACUGUCGUUGACAGGACACGAGUAACUCGUCUAUCUUCUGCAGGCUGCUUACGGUUUCGUCCGUGUUGCAGCCGAUCAUCAGCACAUCUAGGUUUCGUCCGGGUGUGACCGAAAGGUAAGAUGGAGAGCCUUGUCCCUGGUUUCAACGA
Molecule B1 returned a Kd in data set [1] of 26 ± 10 nM.

B2: siDGCR8-1 antisense (ssRNA)
RNA: AUCACACUCUUGUCCGAUGUU
modifications: 5'-phosphate
As to B2, in data set [2], the binding result is “no binding”.

B3: S8hp (structured_RNA)
RNA: GGAAGGAGCUGGUGGCCAUAGUUACGGCGCCGAUCUAAAGUCAUUUGACUUAGGCGACGAGCUUGGCACUGAUCCUUAUGAAGAUUUUCAAGAAAACUGGAACACUAAACAUAGCAGUGGUGUUACCCGUGAACUCAUGCGUGAGCUUAACGGAGGGGCAUACACUCGCUAUGU
As to B3, the binding result in [2] is recorded as “binds”.

B4: S2hp (structured_RNA)
RNA: GGCUGUGUGGCUGUCACUCGGCUGCAUGCUUAGUGCACUCACGCAGUAUAAUUAAUAACUAAUUACUGUCGUUGACAGGACACGAGUAACUCGUCUAUCUUCUGCAGGCUGCUUACGGUUUCGUCCGUGUUGCAGCCGAUCAUCAGCACAUCUAGGUUUCGUCCGGGUGUGACCGAAAGGUAAGAUGGAGAGCCUUGUCCCUGGUUUCAACGA
On to B4, for which the Kd in [3] is approximately 707 nM; in [4], approximately 1410 nM; in data set [5] it was 312 ± 39 nM; in [6] it was approximately 354 nM; in [1], 173 ± 14 nM.

B5: S1.5hp (structured_RNA)
RNA: GGAUCUCUUGUAGAUCUGUUCUCUAAACGAACUUUAAAAUCUGUGUGGCUGUCACUCGGCUGCAUGCUUAGUGCACUCACGCAG
B5: the binding result in data set [7] is listed as “binds”.

B6: F127 (structured_RNA)
RNA: GGAUUAAAGGUUUAUACCUUCCCAGGUAACAAACCAACCAACUUUCGAUCUCUUGUAGAUCUGUUCUCUAAACGAACUUUAAAAUCUGUGUGGCUGUCACUCGGCUGCAUGCUUAGUGCACUCACGCAG
B6 displayed a Kd in [1] of 183 ± 56 nM.

B7: SL4 (structured_RNA)
RNA: GGCUGUGUGGCUGUCACUCGGCUGCAUGCUUAGUGCACUCACGCAG
With B7, the Kd in data set [8] is 4800 ± 200 nM; in data set [9], 356 ± 43 nM.

B8: SL4 hairpin (structured_RNA)
RNA: B7 RNA
For B8, the values for the Kd in data set [5] and in data set [1] were 8600 ± 1000 nM and 569 ± 67 nM, respectively.

B9: siDGCR8-1 duplex (dsRNA)
RNA 1: CAUCGGACAAGAGUGUGAUUU
RNA 2: AUCACACUCUUGUCCGAUGUU
modifications: 5'-phosphate on both strands
Regarding B9, the binding result in data set [2] is given as “binds”.

B10: S2 (ssRNA)
RNA: UAUAAUUAAUAACUAAUUACUG
As to B10, in data set [1], the Kd came to 216 ± 23 nM. Also, the binding result in data set [10], in [11] and in [12] was “no binding” each time.

B11: F257 (structured_RNA)
RNA: GGUCGUUGACAGGACACGAGUAACUCGUCUAUCUUCUGCAGGCUGCUUACGGUUUCGUCCGUGUUGCAGCCGAUCAUCAGCACAUCUAGGUUUCGUCCGGGUGUGACCGAAAGGUAAGAUGGAGAGCCUUGUCCCUGGUUUCAACGAGAAAACACACGUCCAACUCAGUUUGCCUGUUUUACAGGUUCGCGACGUGCUCGUACGUGGCUUUGGAGACUCCGUGGAGGAGGUCUUAUCAGAGGCACGUCAACAUCUUAAA
For B11, binding in data set [1] was characterised by a dissociation constant (Kd) of 23 ± 5 nM.

B12: Tet3-9 (structured_RNA)
RNA: GGACCGUCAAAUUGCGGGAAAGGGGUCAACAGCCGUUCAGUACCAAGUCUCAGGGGAAACUUUGAGAUGGCCUUGCAAAGGGUAUGGUAAUAAGCUGACGGACAUGGUCCUAACCACGCAGCCAAGUCCUAAGUCAACAGGAGACUGUUGAUAUGGAUGCAGUUCACAGACUAAAUGUCGGUCGGGGAAGAUGUAUUCUUCUCAUAAGAUAUAGUCGGACCUCUCCCGAAAGGGAGUUGGAGUACUCGAAAUUCGUUUGGAGGGCUGCAGGGCCCUCUAGA
Take B12: the binding result in [2] was “binds”.

B13: S1hp (structured_RNA)
RNA: GGUUUAUACCUUCCCAGGUAACAAACCAACCAACUUUCGAUCUCUUGUAGAUC
For B13, the binding result in [7] is “binds”.

B14: SL5 (structured_RNA)
RNA: GGUCGUUGACAGGACACGAGUAACUCGUCUAUCUUCUGCAGGCUGCUUACGGUUUCGUCCGUGUUGCAGCCGAUCAUCAGCACAUCUAGGUUUCGUCCGGGUGUGACCGAAAGGUAAGAUGGAGAGCCUUGUCCCUGGUUUCAACGA
As for B14, the Kd in data set [5] was found to be 1250 ± 130 nM; in [1], 166 ± 36 nM.
